Source: the supplement of paper PMC11246515
± gives the standard deviation of the averaged measurements.

Test: total protein half-life in vivo (active degradation + dilution); higher = more stable protein
[1] = E. coli NCM3722 delta-clpP delta-lon delta-hslV, growth: N-lim chemostat, doubling time 6 h
[2] = E. coli NCM3722 delta-clpP, growth: N-lim chemostat, doubling time 6 h
[3] = E. coli NCM3722 delta-hslV, growth: N-lim chemostat, doubling time 6 h
[4] = E. coli NCM3722 delta-lon, growth: N-lim chemostat, doubling time 6 h
[5] = E. coli NCM3722 delta-smpB, growth: N-lim chemostat, doubling time 6 h
[6] = wild type E. coli NCM3722, growth: C-lim chemostat, doubling time 3 h
[7] = wild type E. coli NCM3722, growth: C-lim chemostat, doubling time 6 h
[8] = wild type E. coli NCM3722, growth: C-lim chemostat, doubling time 12 h
[9] = wild type E. coli NCM3722, growth: N-lim chemostat, doubling time 6 h
[10] = wild type E. coli NCM3722, growth: N-lim chemostat, doubling time 12 h
[11] = wild type E. coli NCM3722, growth: P-lim chemostat, doubling time 6 h
[12] = wild type E. coli NCM3722, growth: P-lim chemostat, doubling time 12 h

Row | Sequence | total protein half-life in vivo [1] | total protein half-life in vivo [2] | total protein half-life in vivo [3] | total protein half-life in vivo [4] | total protein half-life in vivo [5] | total protein half-life in vivo [6] | total protein half-life in vivo [7] | total protein half-life in vivo [8] | total protein half-life in vivo [9] | total protein half-life in vivo [10] | total protein half-life in vivo [11] | total protein half-life in vivo [12]
1 | MKKGFMLFTLLAAFSGFAQADDAAIQQTLAKMGIKSSDIQPAPVAGMKTVLTNSGVLYITDDGKHIIQGPMYDVSGTAPVNVTNKMLLKQLNALEKEMIVYKAPQEKHVITVFTDITCGYCHKLHEQMADYNALGITVRYLAFPRQGLDSDAEKEMKAIWCAKDKNKAFDDVMAGKSVAPASCDVDIADHYALGVQLGVSGTPAVVLSNGTLVPGYQPPKEMKEFLDEHQKMTSGK [P0AEG6] | 5.41 ± 0.26 h | 5.77 ± 0.5 h | 6.69 ± 0.64 h | 6.3 ± 0.28 h | 6.38 ± 0.49 h | 3.31 ± 0.52 h | 5.7 ± 0.21 h | 10.8 ± 1.6 h | 5.8 ± 0.27 h | 13.1 ± 2 h | 5.93 ± 1.2 h | 13.2 ± 0.74 h
2 | MIIGNIHNLQPWLPQELRQAIEHIKAHVTAETPKGKHDIEGNRLFYLISEDMTEPYEARRAEYHARYLDIQIVLKGQEGMTFSTQPAGAPDTDWLADKDIAFLPEGVDEKTVILNEGDFVVFYPGEVHKPLCAVGAPAQVRKAVVKMLMA [P0AF96] | 4.25 ± 0.25 h | 4.23 ± 2.1 h | 3.43 h |  | 3.75 ± 0.1 h |  |  | 8.12 ± 0.22 h | 3.18 ± 0.1 h | 5.175 ± 0.0007 h | 4.55 ± 0.89 h | 10.1 ± 0.29 h
3 | MSRFVPRIIPFYLLLLVAGGTANAQSTFEQKAANPFDNNNDGLPDLGMAPENHDGEKHFAEIVKDFGETSMNDNGLDTGEQAKAFALGKVRDALSQQVNQHVESWLSPWGNASVDVKVDNEGHFTGSRGSWFVPLQDNDRYLTWSQLGLTQQDNGLVSNVGVGQRWARGNWLVGYNTFYDNLLDENLQRAGFGAEAWGEYLRLSANFYQPFAAWHEQTATQEQRMARGYDLTARMRMPFYQHLNTSVSLEQYFGDRVDLFNSGTGYHNPVALSLGLNYTPVPLVTVTAQHKQGESGENQNNLGLNLNYRFGVPLKKQLSAGEVAESQSLRGSRYDNPQRNNLPTLEYRQRKTLTVFLATPPWDLKPGETVPLKLQIRSRYGIRQLIWQGDTQILSLTPGAQANSAEGWTLIMPDWQNGEGASNHWRLSVVVEDNQGQRVSSNEITLTLVEPFDALSNDELRWEP |  | 6.12 h | 5.24 ± 1.5 h | 5.79 ± 1.8 h | 5.36 ± 0.54 h |  |  |  | 6.73 ± 1 h | 14.3 ± 1.6 h |  | 
4 | MRQVLSSLLVIAGLVSGQAIAAPESPPHADIRDSGFVYCVSGQVNTFNPSKASSGLIVDTLAAQFYDRLLDVDPYTYRLMPELAESWEVLDNGATYRFHLRRDVPFQKTDWFTPTRKMNADDVVFTFQRIFDRNNPWHNVNGSNFPYFDSLQFADNVKSVRKLDNHTVEFRLAQPDASFLWHLATHYASVMSAEYARKLEKEDRQEQLDRQPVGTGPYQLSEYRAGQFIRLQRHDDFWRGKPLMPQVVVDLGSGGTGRLSKLLTGECDVLAWPAASQLSILRDDPRLRLTLRPGMNVAYLAFNTAKPPLNNPAVRHALALAINNQRLMQSIYYGTAETAASILPRASWAYDNEAKITEYNPAKSREQLKSLGLENLTLKLWVPTRSQAWNPSPLKTAELIQADMAQVGVKVVIVPVEGRFQEARLMDMSHDLTLSGWATDSNDPDSFFRPLLSCAAIHSQTNLAHWCDPKFDSVLRKALSSQQLAARIEAYDEAQSILAQELPILPLASSLRLQAYRYDIKGLVLSPFGNASFAGVYREKQDEVKKP |  |  | 6.48 ± 0.7 h | 6.22 ± 0.64 h | 5.939 ± 0.032 h | 3.129 ± 0.013 h | 5.88 ± 0.23 h | 11.05 ± 0.028 h | 6.39 ± 0.57 h | 13.5 ± 0.91 h | 6.18 ± 0.2 h | 12 ± 1.2 h
5 | MNRLPSSASALACSAHALNLIEKRTLDHEEMKALNREVIEYFKEHVNPGFLEYRKSVTAGGDYGAVEWQAGSLNTLVDTQGQEFIDCLGGFGIFNVGHRNPVVVSAVQNQLAKQPLHSQELLDPLRAMLAKTLAALTPGKLKYSFFCNSGTESVEAALKLAKAYQSPRGKFTFIATSGAFHGKSLGALSATAKSTFRKPFMPLLPGFRHVPFGNIEAMRTALNECKKTGDDVAAVILEPIQGEGGVILPPPGYLTAVRKLCDEFGALMILDEVQTGMGRTGKMFACEHENVQPDILCLAKALGGGVMPIGATIATEEVFSVLFDNPFLHTTTFGGNPLACAAALATINVLLEQNLPAQAEQKGDMLLDGFRQLAREYPDLVQEARGKGMLMAIEFVDNEIGYNFASEMFRQRVLVAGTLNNAKTIRIEPPLTLTIEQCELVIKAARKALAAMRVSVEEA | 4.74 ± 0.26 h | 3.09 ± 0.83 h | 0.385 ± 0.062 h | 0.49 ± 0.12 h | 0.289 ± 0.0059 h | 0.378 ± 0.04 h | 0.631 ± 0.033 h | 1.06 ± 0.45 h | 0.848 ± 0.61 h | 0.594 ± 0.085 h | 0.667 ± 0.37 h | 1.3 ± 0.8 h
6 | MHLLVHPNGSKYWRLQYRYEGKQKMLALGVYPEITLADARVRRDEARKLLANGVDPGDKKKNDKVEQSKARTFKEVAIEWHGTNKKWSEDHAHRVLKSLEDNLFAALGERNIAELKTRDLLAPIKAVEMSGRLEVAARLQQRTTAIMRYAVQSGLIDYNPAQEMAGAVASCNRQHRPALELKRIPELLTKIDSYTGRPLTRWAIELTLLIFIRSSELRFARWSEIDFEASIWTIPPEREPIPGVKHSHRGSKMRTTHLVPLSTQALAILKQIKQFYGAHDLIFIGDHDSHKPMSENTVNSALRVMGYDTKVEVCGHGFRTMACSSLVESGLWSRDAVERQMSHMARNSVRAAYIHKAEHLEERRLMLQWWADFLDVNRERFISPFEYAKINNPLKQ | 5.06 ± 0.41 h | 4.91 h |  |  | 2.44 h |  | 5.13 h | 13.3 h |  |  | 4.82 h | 
7 | MKKVAIVGLGWLGMPLAMSLSARGWQVTGSKTTQDGVEAARMSGIDSYLLRMEPELVCDSDDLDALMDADALVITLPARRSGPGDEFYLQAVQELVDSALAHRIPRIIFTSSTSVYGDAQGTVKETTPRNPVTNSGRVLEELEDWLHNLPGTSVDILRLAGLVGPGRHPGRFFAGKTAPDGEHGVNLVHLEDVIGAITLLLQAPKGGHIYNICAPAHPARNVFYPQMARLLGLEPPQFRNSLDSGKGKIIDGSRICNELGFEYQYPDPLVMPLE [P0AD12] | 4.79 ± 0.29 h | 4.52 ± 0.45 h | 4.63 ± 0.4 h | 5.07 ± 0.57 h | 4.5 ± 0.096 h | 3.06 ± 0.16 h | 5.019 ± 0.0077 h | 8.76 ± 1.2 h | 4.35 ± 0.44 h | 7.41 ± 0.52 h | 5.61 ± 0.32 h | 11.1 ± 0.28 h
8 | MARRILVVEDEAPIREMVCFVLEQNGFQPVEAEDYDSAVNQLNEPWPDLILLDWMLPGGSGIQFIKHLKRESMTRDIPVVMLTARGEEEDRVRGLETGADDYITKPFSPKELVARIKAVMRRISPMAVEEVIEMQGLSLDPTSHRVMAGEEPLEMGPTEFKLLHFFMTHPERVYSREQLLNHVWGTNVYVEDRTVDVHIRRLRKALEPGGHDRMVQTVRGTGYRFSTRF [P0AFJ5] |  | 4.76 ± 0.81 h | 3.79 ± 1.1 h | 5.36 ± 0.14 h | 4.52 ± 0.53 h | 2.93 ± 0.28 h | 5.33 ± 0.14 h | 8.01 ± 1.2 h | 4.51 ± 0.3 h | 8.09 h | 6.11 ± 1 h | 11.3 ± 0.5 h
